Data from the supplement of paper PMC10567573.

B1: CD207 (parent)
chain: MTVEKEAPDAHFTVDKQNISLWPR
B2: ZNF649 (parent)
chain: LTEHKRIHTGKKPHVCSLCGKAFY

Variants of: B1
Test: protein stability index of a GFP-peptide fusion (GPS, HEK-293T) (PSI 1-6); higher = more stable
Conditions: c terminus: a fixed tail appended
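Also: lentivirally expressed fusions sorted by FACS into six bins by GFP to DsRed ratio, PSI derived from sequencing read proportions per bin multiplied by bin number.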

Variant	protein stability index
MTVEKQAPDAHFTVDKQNISLWPR [E6Q]	3.25
MTVEKPAPDAHFTVDKQNISLWPR [E6P]	3.14
MTVEKLAPDAHFTVDKQNISLWPR [E6L]	2.72
MTVEKNAPDAHFTVDKQNISLWPR [E6N]	3.23
MTVEKSAPDAHFTVDKQNISLWPR [E6S]	3.01
MTVEKVAPDAHFTVDKQNISLWPR [E6V]	2.05
MTVEKTAPDAHFTVDKQNISLWPR [E6T]	3.08
MTVEKIAPDAHFTVDKQNISLWPR [E6I]	2.37
MTVEKKAPDAHFTVDKQNISLWPR [E6K]	3.47
MTVEKRAPDAHFTVDKQNISLWPR [E6R]	2.74
MTVEKAAPDAHFTVDKQNISLWPR [E6A]	3.21
MTVEKYAPDAHFTVDKQNISLWPR [E6Y]	2.38
MTVEKEATDAHFTVDKQNISLWPR [P8T]	3.17
MTVEKEAEDAHFTVDKQNISLWPR [P8E]	4.39
MTVEKEANDAHFTVDKQNISLWPR [P8N]	3.48
MTVEKEAWDAHFTVDKQNISLWPR [P8W]	1.93
MTVEKEACDAHFTVDKQNISLWPR [P8C]	2.96
MTVEKEAFDAHFTVDKQNISLWPR [P8F]	1.98
MTVEKEAKDAHFTVDKQNISLWPR [P8K]	3.54
MTVEKEAHDAHFTVDKQNISLWPR [P8H]	4.79
MTVEKEAMDAHFTVDKQNISLWPR [P8M]	3.17
MTVEKEALDAHFTVDKQNISLWPR [P8L]	2.65

Variant	protein stability index
MTVEKEAGDAHFTVDKQNISLWPR [P8G]	3.02
MTVEKEARDAHFTVDKQNISLWPR [P8R]	3.71
MTVEKEAIDAHFTVDKQNISLWPR [P8I]	3.22
MTVEKEAQDAHFTVDKQNISLWPR [P8Q]	3.24
MTVEKEADDAHFTVDKQNISLWPR [P8D]	3.67
MTVEKEAADAHFTVDKQNISLWPR [P8A]	3.52
MTVEKEAVDAHFTVDKQNISLWPR [P8V]	2.86
MTVEKEASDAHFTVDKQNISLWPR [P8S]	3.65
MTVEKEAYDAHFTVDKQNISLWPR [P8Y]	2.6
YTVEKEAPDAHFTVDKQNISLWPR [M1Y]	2.37
ETVEKEAPDAHFTVDKQNISLWPR [M1E]	3.36
RTVEKEAPDAHFTVDKQNISLWPR [M1R]	3.98
ITVEKEAPDAHFTVDKQNISLWPR [M1I]	2.8
TTVEKEAPDAHFTVDKQNISLWPR [M1T]	3.45
VTVEKEAPDAHFTVDKQNISLWPR [M1V]	3.76
HTVEKEAPDAHFTVDKQNISLWPR [M1H]	3.27
WTVEKEAPDAHFTVDKQNISLWPR [M1W]	3.13
CTVEKEAPDAHFTVDKQNISLWPR [M1C]	3.38
ATVEKEAPDAHFTVDKQNISLWPR [M1A]	3.62
GTVEKEAPDAHFTVDKQNISLWPR [M1G]	4.16
FTVEKEAPDAHFTVDKQNISLWPR [M1F]	2.11
DTVEKEAPDAHFTVDKQNISLWPR [M1D]	4.23

Variant	protein stability index
STVEKEAPDAHFTVDKQNISLWPR [M1S]	3.57
PTVEKEAPDAHFTVDKQNISLWPR [M1P]	4.17
NTVEKEAPDAHFTVDKQNISLWPR [M1N]	3.68
QTVEKEAPDAHFTVDKQNISLWPR [M1Q]	3.8
KTVEKEAPDAHFTVDKQNISLWPR [M1K]	2.81
LTVEKEAPDAHFTVDKQNISLWPR [M1L]	3.07
MTREKEAPDAHFTVDKQNISLWPR [V3R]	3.9
MTLEKEAPDAHFTVDKQNISLWPR [V3L]	3.44
MTCEKEAPDAHFTVDKQNISLWPR [V3C]	2.68
MTEEKEAPDAHFTVDKQNISLWPR [V3E]	3.72
MTYEKEAPDAHFTVDKQNISLWPR [V3Y]	2.75
MTHEKEAPDAHFTVDKQNISLWPR [V3H]	3.54
MTNEKEAPDAHFTVDKQNISLWPR [V3N]	3.93
MTPEKEAPDAHFTVDKQNISLWPR [V3P]	4.07
MTWEKEAPDAHFTVDKQNISLWPR [V3W]	2.86
MTIEKEAPDAHFTVDKQNISLWPR [V3I]	3.33
MTQEKEAPDAHFTVDKQNISLWPR [V3Q]	3.42
MTFEKEAPDAHFTVDKQNISLWPR [V3F]	2.85
MTDEKEAPDAHFTVDKQNISLWPR [V3D]	4.12
MTSEKEAPDAHFTVDKQNISLWPR [V3S]	3.55
MTTEKEAPDAHFTVDKQNISLWPR [V3T]	3.57
MTKEKEAPDAHFTVDKQNISLWPR [V3K]	3.79

Variant	protein stability index
MTAEKEAPDAHFTVDKQNISLWPR [V3A]	3.47
MTGEKEAPDAHFTVDKQNISLWPR [V3G]	3.19
MTMEKEAPDAHFTVDKQNISLWPR [V3M]	3.09
MTVRKEAPDAHFTVDKQNISLWPR [E4R]	3.02
MTVYKEAPDAHFTVDKQNISLWPR [E4Y]	2.43
MTVTKEAPDAHFTVDKQNISLWPR [E4T]	2.77
MTVDKEAPDAHFTVDKQNISLWPR [E4D]	3.67
MTVGKEAPDAHFTVDKQNISLWPR [E4G]	3.37
MTVIKEAPDAHFTVDKQNISLWPR [E4I]	2.56
MTVAKEAPDAHFTVDKQNISLWPR [E4A]	3.17
MTVNKEAPDAHFTVDKQNISLWPR [E4N]	2.86
MTVQKEAPDAHFTVDKQNISLWPR [E4Q]	3.92
MTVMKEAPDAHFTVDKQNISLWPR [E4M]	3.2
MTVPKEAPDAHFTVDKQNISLWPR [E4P]	3.18
MTVFKEAPDAHFTVDKQNISLWPR [E4F]	2.28
MTVLKEAPDAHFTVDKQNISLWPR [E4L]	2.79
MTVSKEAPDAHFTVDKQNISLWPR [E4S]	3.68
MTVWKEAPDAHFTVDKQNISLWPR [E4W]	1.99
MTVVKEAPDAHFTVDKQNISLWPR [E4V]	3.38
MTVCKEAPDAHFTVDKQNISLWPR [E4C]	3.11
MTVHKEAPDAHFTVDKQNISLWPR [E4H]	3

Variants of: B2
Test: as above
Conditions: c terminus: a fixed tail appended

Variant	protein stability index
LTEHKRCHTGKKPHVCSLCGKAFY [I7C]	2.6
LTEHKRFHTGKKPHVCSLCGKAFY [I7F]	2.18
LTEHKRIHTGKKPHVCSLCGKAFR [Y24R]	2.42
LTEHKRIHTGKKPHVCSLCGKAFK [Y24K]	3.3
LFEHKRIHTGKKPHVCSLCGKAFY [T2F]	1.7
LCEHKRIHTGKKPHVCSLCGKAFY [T2C]	3.94
LTEHKRIHTGKKPHVCFLCGKAFY [S17F]	2.2
